# Measurements: FireProtDB (doi:10.1021/bi9621829)
# B1: Lysozyme C wild type, P61626 (protein)
# chain: MKALIVLGLVLLSVTVQGKVFERCELARTLKRLGMDGYRGISLANWMCLAKWESGYNTRATNYNAGDRSTDYGIFQINSRYWCNDGKTPGAVNACHLSCSALLQDNIADAVACAKRVVRDPQGIRAWVAWRNRCQNRDVRQYVQGCGV
# Conditions: Homo sapiens; pH 2.7; Thermal; DSC; glycine 0.05 M; reversible: yes; whole UniProt chain shown
protein,measurement,value
B1,Tm,64.9 °C
same,heat capacity change of unfolding,1.58 kcal/mol/K
same,unfolding enthalpy (calorimetric),114 kcal/mol
same,unfolding enthalpy (van 't Hoff),120 kcal/mol
